B1: Vtc4 (natural protein)
chain: MKFGEHLSKSLIRQYSYYYISYDDLKTELEDNLSKNNGQWTQELETDFLESLEIELDKVYTFCKVKHSEVFRRVKEVQEQVQHTVRLLDSNNPPTQLDFEILEEELSDIIADVHDLAKFSRLNYTGFQKIIKKHDKKTGFILKPVFQVRLDSKPFFKENYDELVVKISQLYDIARTSGRPIKGDSSAGGKQQNFVRQTTKYWVHPDNITELKLIILKHLPVLVFNTNKEFEREDSAITSIYFDNENLDLYYGRLRKDEGAEAHRLRWYGGMSTDTIFVERKTHREDWTGEKSVKARFALKERHVNDFLKGKYTVDQVFAKMRKEGKKPMNEIENLEALASEIQYVMLKKKLRPVVRSFYNRTAFQLPGDARVRISLDTELTMVREDNFDGVDRTHKNWRRTDIGVDWPFKQLDDKDICRFPYAVLEVKLQTQLGQEPPEWVRELVGSHLVEPVPKFSKFIHGVATLLNDKVDSIPFWLPQMDVDIRKPPLPTNIEITRPGRSDNEDNDFDEDDEDDAALVAAMTNAPGNSLDIEESVGYGATSAPTSNTNHVVESANAAYYQRKIRNAENPISKKYYEIVAFFDHYFNGDQISKIPKGTTFDTQIRAPPGKTICVPVRVEPKVYFATERTYLSWLSISILLGGVSTTLLTYGSPTAMIGSIGFFITSLAVLIRTVMVYAKRVVNIRLKRAVDYEDKIGPGMVSVFLILSILFSFFCNLVAK
B2: Vtc1 (natural protein)
chain: MSSAPLLQRTPGKKIALPTRVEPKVFFANERTFLSWLNFTVMLGGLGVGLLNFGDKIGRVSAGLFTFVAMGTMIYALVTYHWRAAAIRRRGSGPYDDRLGPTLLCFFLLVAVIINFILRLKYNDANTKL

Data set [1] addresses T1, Vtc3-TAPm (S. cerevisiae, UniProt Q02725 1-835).
T1 sequence: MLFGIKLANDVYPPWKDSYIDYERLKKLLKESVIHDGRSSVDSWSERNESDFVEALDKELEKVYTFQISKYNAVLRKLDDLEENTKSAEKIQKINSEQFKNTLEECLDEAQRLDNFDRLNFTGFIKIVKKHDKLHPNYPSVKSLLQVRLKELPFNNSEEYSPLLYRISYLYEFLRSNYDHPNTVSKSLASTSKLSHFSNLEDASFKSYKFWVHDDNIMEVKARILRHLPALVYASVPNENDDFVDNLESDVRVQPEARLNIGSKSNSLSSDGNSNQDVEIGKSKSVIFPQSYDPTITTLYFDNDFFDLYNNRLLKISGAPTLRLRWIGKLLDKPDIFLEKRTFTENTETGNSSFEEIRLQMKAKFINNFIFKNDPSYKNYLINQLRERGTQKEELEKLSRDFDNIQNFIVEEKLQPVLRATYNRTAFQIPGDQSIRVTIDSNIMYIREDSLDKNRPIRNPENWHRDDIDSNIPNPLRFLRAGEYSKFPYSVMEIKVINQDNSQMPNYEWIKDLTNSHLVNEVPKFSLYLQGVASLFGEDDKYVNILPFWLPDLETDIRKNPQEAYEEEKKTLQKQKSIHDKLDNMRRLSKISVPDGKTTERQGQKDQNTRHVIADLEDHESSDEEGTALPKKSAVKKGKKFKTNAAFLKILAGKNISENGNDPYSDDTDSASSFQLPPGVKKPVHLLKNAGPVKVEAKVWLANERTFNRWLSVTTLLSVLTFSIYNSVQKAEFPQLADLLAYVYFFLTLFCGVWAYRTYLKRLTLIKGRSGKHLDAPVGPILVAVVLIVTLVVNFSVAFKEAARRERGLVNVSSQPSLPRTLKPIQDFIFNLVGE
The data set can be described thus: cryo-EM structure.

The target of the data set “Vtc4” is B1. The data set can be described thus: cryo-EM structure.
The data set “cryo-EM structure” deals with the molecule itself. The data set can be described thus: cryo-EM structure.
Data set [2] has as its target T1, Vtc3-TAPm. The data set can be described thus: affinity co-purification of the endogenous complex.

Here are results for two molecules from doi:10.1101/2023.01.27.525886 (bioRxiv, 2023).

In general, stoichiometry N refers to the number of molecules, sites or subunits per partner or assembly. For B1, the “stoichiometry N” value with Vtc3-TAPm [1] worked out at 1 Vtc4 per Vtc3.

For the molecule B2, the “stoichiometry N” value in the data set with Vtc4 stood at 3 Vtc1 per Vtc4. Moreover, the binding result in “cryo-EM structure” and with Vtc3-TAPm [2] was “binds” each time.
